The values that follow come from article PMC12381585.

What all share (conditions): remark: other sources report otherwise
Test [1] has as its target T1, endogenous 14-3-3ζ (YWHAZ) in A549 cells (human (endogenous in A549)), P63104.
T1 chain: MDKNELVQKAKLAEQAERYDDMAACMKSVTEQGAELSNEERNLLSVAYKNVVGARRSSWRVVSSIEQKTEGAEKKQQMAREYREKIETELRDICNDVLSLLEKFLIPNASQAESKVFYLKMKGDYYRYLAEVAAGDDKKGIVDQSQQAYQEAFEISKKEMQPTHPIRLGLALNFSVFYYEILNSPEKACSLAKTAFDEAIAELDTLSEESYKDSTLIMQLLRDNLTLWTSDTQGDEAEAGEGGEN
Briefly: cross-linking.

For test [2], the target named is T1, endogenous 14-3-3ζ (YWHAZ) in A549 …. Briefly: native gel or EMSA. A general note: A gel shift assay detects complexes by their altered migration in electrophoresis.
The target in test [3] is T2, purified recombinant 14-3-3ζ, P63104.
T2 chain: T1 chain
Briefly: cross-linking.

B1: endogenous 14-3-3ζ (YWHAZ) in A549 cells, P63104 1-245 (natural protein)
chain: T1 chain
One may read the stoichiometry N as a count of units in the complex or per binding partner. With B1, the stoichiometry N in test [1] and in test [2] was 2 each time.

B2: purified recombinant 14-3-3ζ, P63104 1-245 (natural protein)
chain: T1 chain
With B2, the stoichiometry N in test [3] worked out at 2.
